The chains are these.
B1: Steroid Delta-isomerase, P07445 (parent)
chain: MNLPTAQEVQGLMARYIELVDVGDIEAIVQMYADDATVEDPFGQPPIHGREQIAAFYRQGLGGGKVRACLTGPVRASHNGCGAMPFRVEMVWNGQPCALDVIDVMRFDEHGRIQTMQAYWSEVNLSVREPQ

The variants in this series derive from B1. The conditions noted are these: Pseudomonas putida; pH 7; 25 °C; Urea; CD; Sodium phosphate 25 mM; reversible: yes; structure 1OH0; whole UniProt chain shown.

Turning to MNLPTAQEVQGLMARYIELVDVGDIEAIVQMFADDATVEDPFGQPPIHGREQIAAFFRQGLGGGKVRACLTGPVRASHNGCGAMPFRVEMVWNGQPCALDVIDVMRFDEHGRIQTMQAYWSEVNLSVREPQ, the denaturant m value stood at 3.05 kcal/mol/M, the “denaturant midpoint (higher = more stable)” value (“denaturant midpoint” for short) was found to be 5.81 M and the unfolding free energy was determined as 24.3 kcal/mol.
Taken in the same sequence, the figures for MNLPTAQEVQGLMARYIELVDVGDIEAIVQMFADDATVEDPFGQPPIHGREQIAAFYRQGLGGGKVRACLTGPVRASHNGCGAMPFRVEMVWNGQPCALDLIDVMRFDEHGRIQTMQAYWSEVNLSVREPQ were 2.52 kcal/mol/M, 4.45 M and 17.8 kcal/mol.
Taken in the same sequence, the figures for MNLPTAQEVQGLMARYIELVDVGDIEAIVQMYADDATVEDPFGQPPIHGREQIAAFYRQGLGGGKVRACLTGPVRASHNGCGAMPFRVEMVWNGQPCALDLIDVMRFDEHGRIQTMQAYWSEVNLSVREPQ were 3.32 kcal/mol/M, 4.19 M and 20.5 kcal/mol.
Taken in the same sequence, the figures for MNLPTAQEVQGLMARFIELVDVGDIEAIVQMYADDATVEDPFGQPPIHGREQIAAFYRQGLGGGKVRACLTGPVRASHNGCGAMPFRVEMVWNGQPCALDVIDVMRFDEHGRIQTMQAYWSEVNLSVREPQ were 3.1 kcal/mol/M, 4.3 M and 19.9 kcal/mol.
Turning to MNLPTAQEVQGLMARYIELVDVGDIEAIVQMYADDATVEDPFGQPPIHGREQIAAFFRQGLGGGKVRACLTGPVRASHNGCGAMPFRVEMVWNGQPCALDLIDVMRFDEHGRIQTMQAYWSEVNLSVREPQ, the denaturant m value amounted to 2.31 kcal/mol/M, the “denaturant midpoint” value came out at 4.25 M and the unfolding free energy was found to be 16.4 kcal/mol.
For MNLPTAQEVQGLMARYIELVDVGDIEAIVQMYADDATVEDPFGQPPIHGREQIAAFFRQGLGGGKVRACLTGPVRASHNGCGAMPFRVEMVWNGQPCALDVIDVMRFDEHGRIQTMQAYWSEVNLSVREPQ, in that order: 2.98 kcal/mol/M, 4.77 M and 20.8 kcal/mol.
As for MNLPTAQEVQGLMARYIELVDVGDIEAIVQMFADDATVEDPFGQPPIHGREQIAAFYRQGLGGGKVRACLTGPVRASHNGCGAMPFRVEMVWNGQPCALDVIDVMRFDEHGRIQTMQAYWSEVNLSVREPQ, the denaturant m value amounted to 3.23 kcal/mol/M, the “denaturant midpoint” value was determined as 5.49 M and the unfolding free energy was determined as 24.3 kcal/mol.
